The labels stand for the following.
B1: Azoarcus group I ribozyme (parent)
chain: GUGCCUUGCGCCGGGAAACCACGCAAGGGAUGGUGUCAAAUUCGGCGAAACCUAAGCGCCCGCCCGGGCGUAUGGCAACGCCGAGCCAAGCUUCGGCGCCUGCGCCGAUGAAGGUGUAGAGACUAGACGGCACCCACCUAAGGCAAACGCUAUGGUGAAGGCAUAGUCCAGGGAGUGGCGAAAGUCACACAAACCGG

The results in this text go back to the RNAGym collection of RNA variant scans (doi:10.1093/molbev/msab373).

Variants of B1 are the subject of the data set. As to the kind of experiment: reverse-splicing fitness (ratio to wild type); higher = more active; in vitro selection; Mg2+ level not given. The procedure, abridged: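 An in vitro group I ribozyme library with randomized positions was T7-transcribed and gel-purified. In triplicate, 10 pmol RNA in EPPS pH 7.5 was reacted with 50 pmoles of a 30-nt RNA substrate for 1 h at 37 °C across several added MgCl2 levels (1–48 mM), then stopped with EDTA. Products were reverse transcribed from a substrate-complementary primer, PCR-amplified and sequenced (HiSeq 4000). Fitness is a variant's read proportion after selection over that before, normalised to wild type.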
Take GUGCCUUGCGCCGGGAAACCACGCAAGGGAUGGUGUCAAAUUCGGCGAAACCUAAGCGCCCGCCCGGGCGUAUGGCAACGCAGAGCCAAGCUUCGGCGCCUGCGCCGAUGAAGGUGUAGGGACUAGACGGCACCCACCUAAGGCAAACGGUAUGGUGAAGGCAUAGUCCAGGGAGCGGCGAAAGUCACACAAACCGG [C82A A120G C150G U176C]: the reverse-splicing fitness amounted to 0.00829.

For the variant GUGCCUUGCGCCGGGAAACCACGCAAGGGAUGGUGUCAAAUUCGGCGAAACCUAAGCGCCCGCCCGGGCGUAUGGCAACGCAGAGCCAAGCUUCGGCGCCUGCGCCGAUGAAGGUGUAGGGACUAGACGGCACCCACCUAAGGCAAACGGUAUGGUGAAGGCAUAGUCCAGGGAGAGGCGAAAGUCACACAAACCGG [C82A A120G C150G U176A], the reverse-splicing fitness was 0.00568. With GUGCCUUGCGCCGGGAAACCACGCAAGGGAUGGUGUCAAAUUCGGCGAAACCUAAGCGCCCGCCCGGGCGUAUGGCAACGCAGAGCCAAGCUUCGGCGCCUGCGCCGAUGAAGGUGUAGGGACUAGACGGCACCCACCUAAGGCAAACGGUAUGGUGAAGGCAUAGUCAAGGGAGCGGCGAAAGUCACACAAACCGG [C82A A120G C150G C169A U176C] the figure was 0.0109; with GUGCCUUGCGCCGGGAAACCACGCAAGGGAUGGUGUCAAAUUCGGCGAAACCUAAGCGCCCGCCCGGGCGUAUGGCAACGCAGAGCCAAGCUUCGGCGCCUGCGCCGAUGAAGGUGUAGGGACUAGACGGCACCCACCUAAGGCAAACGGUAUGGUGAAGGCAUAGUCAAGGGAGGGGCGAAAGUCACACAAACCGG [C82A A120G C150G C169A U176G], 0.00619. Next, GUGCCUUGCGCCGGGAAACCACGCAAGGGAUGGUGUCAAAUUCGGCGAAACCUAAGCGCCCGCCCGGGCGUAUGGCAACGCAGAGCCAAGCUUCGGCGCCUGCGCCGAUGAAGGUGUAGGGACUAGACGGCACCCACCUAAGGCAAACGGUAUGGUGAAGGCAUAGUCAAGGGAGAGGCGAAAGUCACACAAACCGG [C82A A120G C150G C169A U176A]: 0.0116. For the variant GUGCCUUGCGCCGGGAAACCACGCAAGGGAUGGUGUCAAAUUCGGCGAAACCUAAGCGCCCGCCCGGGCGUAUGGCAACGCAGAGCCAAGCUUCGGCGCCUGCGCCGAUGAAGGUGUAGGGACUAGACGGCACCCACCUAAGGCAAACGUUAUGGUGAAGGCAUAGUCUAGGGAGAGGCGAAAGUCACACAAACCGG [C82A A120G C150U C169U U176A], the reverse-splicing fitness came to 0.0231. With GUGCCUUGCGCCGGGAAACCACGCAAGGGAUGGUGUCAAAUUCGGCGAAACCUAAGCGCCCGCCCGGGCGUAUGGCAACGCAGAGCCAAGCUUCGGCGCCUGCGCCGAUGAAGGUGUAGGGACUAGACGGCACCCACCUAAGGCAAACGGUAUGGUGAAGGCAUAGUCAAGGGAGUGGCGAAAGUCACACAAACCGG [C82A A120G C150G C169A] the figure was 0.00866; with GUGCCUUGCGCCGGGAAACCACGCAAGGGAUGGUGUCAAAUUCGGCGAAACCUAAGCGCCCGCCCGGGCGUAUGGCAACGCAGAGCCAAGCUUCGGCGCCUGCGCCGAUGAAGGUGUAGGGACUAGACGGCACCCACCUAAGGCAAACGGUAUGGUGAAGGCAUAGUCUAGGGAGUGGCGAAAGUCACACAAACCGG [C82A A120G C150G C169U], 0.0095; with GUGCCUUGCGCCGGGAAACCACGCAAGGGAUGGUGUCAAAUUCGGCGAAACCUAAGCGCCCGCCCGGGCGUAUGGCAACGCAGAGCCAAGCUUCGGCGCCUGCGCCGAUGAAGGUGUAGGGACUAGACGGCACCCACCUAAGGCAAACGGUAUGGUGAAGGCAUAGUCGAGGGAGUGGCGAAAGUCACACAAACCGG [C82A A120G C150G C169G], 0.00786.

For GUGCCUUGCGCCGGGAAACCACGCAAGGGAUGGUGUCAAAUUCGGCGAAACCUAAGCGCCCGCCCGGGCGUAUGGCAACGCAGAGCCAAGCUUCGGCGCCUGCGCCGAUGAAGGUGUAGGGACUAGACGGCACCCACCUAAGGCAAACGUUAUGGUGAAGGCAUAGUCGAGGGAGGGGCGAAAGUCACACAAACCGG [C82A A120G C150U C169G U176G], the reverse-splicing fitness came to 0.00468. Regarding GUGCCUUGCGCCGGGAAACCACGCAAGGGAUGGUGUCAAAUUCGGCGAAACCUAAGCGCCCGCCCGGGCGUAUGGCAACGCAGAGCCAAGCUUCGGCGCCUGCGCCGAUGAAGGUGUAGGGACUAGACGGCACCCACCUAAGGCAAACGUUAUGGUGAAGGCAUAGUCGAGGGAGCGGCGAAAGUCACACAAACCGG [C82A A120G C150U C169G U176C], the reverse-splicing fitness is 0.0193. In the case of GUGCCUUGCGCCGGGAAACCACGCAAGGGAUGGUGUCAAAUUCGGCGAAACCUAAGCGCCCGCCCGGGCGUAUGGCAACGCAGAGCCAAGCUUCGGCGCCUGCGCCGAUGAAGGUGUAGGGACUAGACGGCACCCACCUAAGGCAAACGUUAUGGUGAAGGCAUAGUCGAGGGAGAGGCGAAAGUCACACAAACCGG [C82A A120G C150U C169G U176A], the reverse-splicing fitness was 0.0162. GUGCCUUGCGCCGGGAAACCACGCAAGGGAUGGUGUCAAAUUCGGCGAAACCUAAGCGCCCGCCCGGGCGUAUGGCAACGCAGAGCCAAGCUUCGGCGCCUGCGCCGAUGAAGGUGUAGGGACUAGACGGCACCCACCUAAGGCAAACGAUAUGGUGAAGGCAUAGUCCAGGGAGCGGCGAAAGUCACACAAACCGG [C82A A120G C150A U176C]: the reverse-splicing fitness was 0.0171.

GUGCCUUGCGCCGGGAAACCACGCAAGGGAUGGUGUCAAAUUCGGCGAAACCUAAGCGCCCGCCCGGGCGUAUGGCAACGCAGAGCCAAGCUUCGGCGCCUGCGCCGAUGAAGGUGUAGGGACUAGACGGCACCCACCUAAGGCAAACGAUAUGGUGAAGGCAUAGUCCAGGGAGGGGCGAAAGUCACACAAACCGG [C82A A120G C150A U176G]: the reverse-splicing fitness was determined as 0.00837. Next, GUGCCUUGCGCCGGGAAACCACGCAAGGGAUGGUGUCAAAUUCGGCGAAACCUAAGCGCCCGCCCGGGCGUAUGGCAACGCAGAGCCAAGCUUCGGCGCCUGCGCCGAUGAAGGUGUAGGGACUAGACGGCACCCACCUAAGGCAAACGAUAUGGUGAAGGCAUAGUCCAGGGAGAGGCGAAAGUCACACAAACCGG [C82A A120G C150A U176A]: 0.0118.
